2 molecules from US8530168B2, “Fusion protein comprising a Caspase domain and a nuclear hormone receptor binding domain and methods and uses thereof” (Helmholtz Zentrum Munich Deutsches Forschungszentrum fuer …, priority 2007, dated 2013) can be followed below.

Holding throughout (format): cell-based, mouse
Series [1] deals with MEF5/N9 cells. The series can be described thus: Transient cotransfection of ER(T2) fusion expression vectors with β-galactosidase reporter; β-galactosidase activity in lysates. Conditions: no 4-OH-tamoxifen; transient transfection 50 or 100 ng vector; relative to Cre-ER(T2) without 4-OH-tamoxifen.
Series [2] has as its system MEF5/N9 cells. Briefly: Visible phenotypic changes / viability of stably transfected MEF5/N9 clones on 4-OH-tamoxifen treatment. The note with it: 10^−8 M 4-OH-tamoxifen, 24 h. As for the experimental part: (§1) To generate stably transfected MEF5/N9 cells, 2·10^6 cells were coelectroporated with 32 μg ER(T2) fusion plasmid DNA linearised with ScaI and 8 μg pPgk-hygro-pA plasmid DNA linearised with XhoI and plated into two 96-well plates. The cells were grown in DMEM medium (Invitrogen) supplemented with 2 mM Glutamine and 10% fetal calf serum at 37° C., 5% CO2 in humid atmosphere, and passaged upon trypsinization. Two days after transfection the medium was supplemented with 250 U/ml of hygromycin (Calbiochem) for the selection of stable integrants. Upon the growth of resistant colonies these were individually expanded in the presence of hygromycin.
To examine 4-OH-tamoxifen-dependent cell death, 1·10^5 MEF5/N9 cells expressing ER(T2) fusion proteins were plated into each well of a six-well plate. The following day, for each sample the medium in two of four individual wells were replaced with medium supplemented with 10^−8 M 4-hydroxy-tamoxifen. 24 hours after induction with 4-OH-tamoxifen, cells were photographed through a Leica DMI6000B fluorescence microscope with phase contrast either at 10-fold or 20-fold magnification.
Since the responsiveness of the clones, transfected with the same construct, to 4-OH-tamoxifen differed only slightly from each other, only the results obtained from one clone for each construct are shown in the figure.

Series [3] deals with MEF5/N9 cells. Briefly: MTT cytotoxicity assay of stably transfected MEF5/N9 clones. The note with it: 10^−8 M 4-OH-tamoxifen, 48 h. On the procedure: as §1
To quantify 4-OH-tamoxifen-inducible cell death, we applied the colorimetric MTT assay (Mossman, J. Immunol. Methods, 65, 55 (1983)) allowing the quantification of cell survival. Cells (4·10^3) were plated on 96-well plates. The assay was carried out in three replicas for each sample treated with and without 4-OH-tamoxifen. After 12 h, medium was replaced either with fresh medium or with medium supplemented with 10^−8 M 4-OH-tamoxifen. Following 48 h of 4-OH-tamoxifen treatment, sterile filtered MTT reagent in PBS (Sigma) was added at the concentration of 0.5 mg/ml. Incubation occurred for 4 hours at 37° C. With ongoing reaction time, dark violet MTT formazan crystals appeared on the bottom of the wells containing living cells. The crystals were dissolved in 150 μl 0.04 N HCl/isopropanol to give a homogeneous blue solution suitable for absorbance measurement at a wavelength of 570 nm on the Synergy™ HT Multi-Detection Microplate Reader (BioTek).
On the technique in general: Tetrazolium assays rely on reduction of a dye to a coloured formazan, in cell work by metabolically active cells.

Series [4] deals with MEF5/N9 cells. Briefly: Transient cotransfection of ER(T2) fusion expression vectors with β-galactosidase reporter; β-galactosidase activity in lysates. Conditions: 10^−8 M 4-OH-tamoxifen, 48 h; for relative β-galactosidase activity in presence of 4-OH-tamoxifen compared to the negative control: relative to Cre-ER(T2) without 4-OH-tamoxifen. On the procedure:
The transformed mouse embryonic fibroblast cell line MEF5/N9 (Schwenk et al., Nucleic Acids Research, 26(6) 1427-1432 (1998)) was obtained from Michel Aguet (University of Zurich, Switzerland). The cells were grown in DMEM medium (Life Technologies) supplemented with 2 mM […] and 10% fetal calf serum at 37° C., 5% CO2 in humid atmosphere and passaged upon trypsinization. One day before transient transfection 4·10^4 cells were plated into a 24-well plate (Falcon). For the transient transfection of MEF5/N9 cells with plasmids, each well received into 500 μl of medium a total amount of 150 ng or 200 ng supercoiled plasmid DNA complexed before with the FuGene6 transfection reagent (Roche Diagnostics GmbH, Mannheim, Germany) according to the manufacturer's protocol. Each 150 ng or 200 ng DNA preparation (FIG. 2 sample 1 to 11) contained 100 ng of the β-Galactosidase expression vector pCMV-β-gal-pA (pCMVβ, Clontech, FIG. 1G, SEQ ID NO: 56), and 100 ng of the fusion ER(T2) expression vectors to be tested (FIG. 2 sample 3-7, 10-11) and the control plasmids (FIG. 2 sample 1-3), except for the samples with the plasmids pCAG-Casp9full-ER(T2)-bpA (FIG. 2 sample 8) and pCAG-Casp9trunc-ER(T2)-bpA (FIG. 2 sample 9), respectively, that received 50 ng of the test vector. For each sample to be tested four individual wells were transfected. Five hours after the addition of the DNA preparations each well received additional 500 μl of growth medium. The following day, the medium of two wells of each sample was replaced by fresh medium. The other two wells received medium containing 10^−8 M 4-hydroxy-tamoxifen (Sigma). 48 hours after induction with 4-OH-tamoxifen, the cells of each well were lysed with 200 μl lysate reagent supplemented with protease inhibitors (Roche Diagnostics GmbH). The lysates were centrifuged and 50 μl were used to determine the β-galactosidase activities using the β-galactosidase reporter gene assay (Roche Diagnostics GmbH) according to the manufacturer's protocol in a microplate luminometer (Berthold Detection Systems GmbH). The mean value and standard deviation of the samples was calculated from the β-galactosidase RLU values obtained from the two transfected wells of each sample. The relative β-galactosidase activity was obtained by comparison to the negative control (pCAG-Cre-ER(T2)-bpA) without 4-OH-tamoxifen.
To investigate the cell death effect of the different ER(T2) fusion constructs quantitatively, we performed transient cotransfections of the ER(T2) fusion protein expression vectors together with a fixed amount of a reporter plasmid coding for β-galactosidase in MEF5/N9 fibroblast cells. Transfected cells were treated 12 hours after transfection with 4-OH-tamoxifen at a concentration of 10^−8 M. Following 48 hours of 4-OH-tamoxifen induction, the cells from the various samples were lysed and the activity of β-galactosidase in the lysates was determined by a chemiluminescence assay and expressed in “Relative Light Units” (RLU) (FIG. 2). As positive controls for 4-OH-tamoxifen-inducible cell death, we prepared samples transfected with the constructs pCAG-HAFas-ER(T2) or pCAG-MFas-ER(T2) together with the reporter plasmid and treatment with 4-OH-tamoxifen. As negative control for this assay served samples which received the reporter plasmid together with the expression vector pCAG-Cre-ER(T2) and that were treated with 4-OH-tamoxifen.
To determine the relative activity of the tested ER(T2) fusion constructs inducing apoptosis in the presence of 4-OH-tamoxifen, the RLU values of β-galactosidase activity were divided individually for each sample by the RLU value obtained from the sample which received the plasmid pCAG-Cre-ER(T2) but was not treated with 4-OH-tamoxifen (defined as negative control). The relative activity of the tested Caspase- or bax-ER(T2) fusion proteins was then compared to the negative control for 4-OH-tamoxifen-dependent cell death defined as an activity of 1.

B1: Casp3-ER(T2): full length murine Caspase-3 fused to ER(T2) ligand binding domain, SEQ ID NO: 37 (protein)
chain: MENNKTSVDSKSINNFEVKTIHGSKSVDSGIYLDSSYKMDYPEMGICIIINNKNFHKSTGMSSRSGTDVDAANLRETFMGLKYQVRNKNDLTREDILELMDSVSKEDHSKRSSFVCVILSHGDEGVIYGTNGPVELKKLTSFFRGDYCRSLTGKPKLFIIQACRGTELDCGIETDSGTDEEMACQKIPVEADFLYAYSTAPGYYSWRNSKDGSWFIQSLCSMLKLYAHKLEFMHILTRVNRKVATEFESFSLDSTFHAKKQIPCIVSMLTKELYFYHLEPSAGDMRAANLWPSPLMIKRSKKNSLALSLTADQMVSALLDAEPPILYSEYDPTRPFSEASMMGLLTNLADRELVHMINWAKRVPGFVDLTLHDQVHLLECAWLEILMIGLVWRSMEHPVKLLFAPNLLLDRNQGKCVEGMVEIFDMLLATSSRFRMMNLQGEEFVCLKSIILLNSGVYTFLSSTLKSLEEKDHIHRVLDKITDTLIHLMAKAGLTLQQQHQRLAQLLLILSHIRHMSNKGMEHLYSMKCKNVVPLYDLLLEAADAHRLHAPTSRGGASVEETDQSHLATAGSTSSHSLQKYYITGEAEGFPATA
modifications: fusion gene Casp3-ER(T2)
B1: the “basal toxicity: relative β-galactosidase activity compared to the negative control in absence of 4-OH-tamoxifen” value in the series on MEF5/N9 cells [1] was found to be 52%. Also, the “4-OH-tamoxifen-dependent cell death, phenotype of stable clones” value (“4-OH-tamoxifen-dependent cell death” below) in the series on MEF5/N9 cells [2] was “neither the two Fas-ER(T2) variants (see FIG. 4 H2, I2) nor Casp3-ER(T2) (FIG. 4 E2) were able to induce apoptosis in the presence of 4-OH-tamoxifen”. Also, in the series on MEF5/N9 cells [2] (listed as Casp3ER), the “4-OH-tamoxifen-dependent cell death” value is reported as “not affected by the treatment with 4-OH-tamoxifen”. For the same molecule, the “cell viability in the presence of 4-OH-tamoxifen (MTT)” value with MEF5/N9 cells [3] is on record as “not affected by treatment with 4-OH-tamoxifen”. Moreover, in the series on MEF5/N9 cells [4], the “4-OH-tamoxifen-dependent activity / toxicity in transient transfection (in words)” value is listed as “low compared to the Caspase 8 or Caspase 9 ER(T2) fusion variants” and the “relative β-galactosidase activity in presence of 4-OH-tamoxifen compared to the negative control” value is reported as 28%.

B2: HAFas-ER(T2): HA epitope, transmembrane and intracellular domain of murine Fas (135-305) fused to ER(T2); planned positive control (protein)
chain: MGYPYDVPDYATSNTNCRKQSPRNRLWLLTILVLLIPLVFIYRKYRKRKCWKRRQDDPESRTSSRETIPMNASNLSLSKYIPRIAEDMTIQEAKKFARENNIKEGKIDEIMHDSIQDTAEQKVQLLLCWYQSHGKSDAYQDLIKGLKKAECRRTLDKFQDMVQKDLGKSTPDTGNENEGQCLVEPSAGDMRAANLWPSPLMIKRSKKNSLALSLTADQMVSALLDAEPPILYSEYDPTRPFSEASMMGLLTNLADRELVHMINWAKRVPGFVDLTLHDQVHLLECAWLEILMIGLVWRSMEHPVKLLFAPNLLLDRNQGKCVEGMVEIFDMLLATSSRFRMMNLQGEEFVCLKSIILLNSGVYTFLSSTLKSLEEKDHIHRVLDKITDTLIHLMAKAGLTLQQQHQRLAQLLLILSHIRHMSNKGMEHLYSMKCKNVVPLYDLLLEAADAHRLHAPTSRGGASVEETDQSHLATAGSTSSHSLQKYYITGEAEGFPATA
modifications: fusion protein HAFas-ER(T2)
notes: planned positive control
As for B2, the “basal toxicity: relative β-galactosidase activity compared to the negative control in absence of 4-OH-tamoxifen” value in the series with MEF5/N9 cells [1] worked out at 52%. The “4-OH-tamoxifen-dependent cell death” value in the series on MEF5/N9 cells [2] is listed as “not affected by the treatment with 4-OH-tamoxifen”. For the same molecule, in the series on MEF5/N9 cells [3], the “cell viability in the presence of 4-OH-tamoxifen (MTT)” value is reported as “not affected by treatment with 4-OH-tamoxifen”. In addition, the “relative β-galactosidase activity in presence of 4-OH-tamoxifen compared to the negative control” value in the series with MEF5/N9 cells [4] worked out at 23%.
